The supplement of paper PMC6757056
± gives the standard deviation of the averaged measurements.

B1: library; a variant is named by its letters at N, in order (parent)
chain: GCUGUCACCGGUGUAUUACCCUAGUGGUCGACCGGUCUGAUGAGUCUNNNNNNAGACGAAACAGC

Experiments:
hypoxanthine [1] = variants of: B1; assay: normalized RNA/DNA level with ligand (relative to sTRSVctl = 100) (log10 (% of sTRSVctl)); ligand: hypoxanthine (xanthine aptamer); higher = less ribozyme self-cleavage, higher mRNA level; conditions: ligand concentration (+) RNA-Seq: 5 mM, HEK293T, reporter: mCherry (pCS4076), ligand present: yes
Outline: (§1)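 Library plasmids carrying ribozyme switches linked to mCherry, or to eGFP in some ligand experiments, were transfected into HEK293T at 4 µg per 6-well well, with any ligand added 1 h earlier. Seventy-two hours on, total RNA was extracted with EDTA and reverse-transcribed, amplified, barcoded and sequenced. RNA level was RNA over DNA reads normalized to a spiked-in non-cleaving sequence or to the top sequences, then scaled and log-transformed. The top set was 25 sequences, the transform was ×100 and log10, and sequences needed ≥100 DNA reads.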

hypoxanthine [2] = variants of: B1; assay: normalized RNA/DNA level without ligand (relative to sTRSVctl = 100) (log10 (% of sTRSVctl)); ligand: hypoxanthine (xanthine aptamer); higher = less ribozyme self-cleavage, higher mRNA level; conditions: HEK293T, reporter: mCherry (pCS4076), ligand present: no
Outline: as §1

CUCCUA was tested, and the “normalized RNA/DNA level with ligand (log10)” value (hypoxanthine [1]) was 1.96 ± 0.075 and the “normalized RNA/DNA level without ligand (log10)” value (hypoxanthine [2]) was 1.87 ± 0.055.

For CUAGCG, the “normalized RNA/DNA level with ligand (log10)” value (hypoxanthine [1]) was 1.91 ± 0.068 and the “normalized RNA/DNA level without ligand (log10)” value (hypoxanthine [2]) was 1.824 ± 0.0032.

In the case of CUAGCU, the “normalized RNA/DNA level with ligand (log10)” value (hypoxanthine [1]) is reported as 1.987 ± 0.0096 and the “normalized RNA/DNA level without ligand (log10)” value (hypoxanthine [2]) is reported as 1.93 ± 0.042.

For CUAGCC, the “normalized RNA/DNA level with ligand (log10)” value (hypoxanthine [1]) was 1.95 ± 0.037 and the “normalized RNA/DNA level without ligand (log10)” value (hypoxanthine [2]) was 1.86 ± 0.064.

For GUAAGU, the “normalized RNA/DNA level with ligand (log10)” value (hypoxanthine [1]) was 1.94 ± 0.039 and the “normalized RNA/DNA level without ligand (log10)” value (hypoxanthine [2]) was 1.79 ± 0.019.

For UUAUGU, the “normalized RNA/DNA level with ligand (log10)” value (hypoxanthine [1]) was 1.92 ± 0.021 and the “normalized RNA/DNA level without ligand (log10)” value (hypoxanthine [2]) was 1.794 ± 0.01.

In the case of UUAUGC, the “normalized RNA/DNA level with ligand (log10)” value (hypoxanthine [1]) is reported as 1.94 ± 0.039 and the “normalized RNA/DNA level without ligand (log10)” value (hypoxanthine [2]) is reported as 1.874 ± 0.0042.

With AUAUGC the “normalized RNA/DNA level with ligand (log10)” value (hypoxanthine [1]) was 1.94 ± 0.0047 and the “normalized RNA/DNA level without ligand (log10)” value (hypoxanthine [2]) was 1.76 ± 0.018.

For AUAAUC, the “normalized RNA/DNA level with ligand (log10)” value (hypoxanthine [1]) was 1.939 ± 0.0048 and the “normalized RNA/DNA level without ligand (log10)” value (hypoxanthine [2]) was 1.884 ± 0.0055.

For CUAUUU, the “normalized RNA/DNA level with ligand (log10)” value (hypoxanthine [1]) was 2 ± 0.021 and the “normalized RNA/DNA level without ligand (log10)” value (hypoxanthine [2]) was 1.93 ± 0.053.

With AUCCAC the “normalized RNA/DNA level with ligand (log10)” value (hypoxanthine [1]) was 1.95 ± 0.056 and the “normalized RNA/DNA level without ligand (log10)” value (hypoxanthine [2]) was 1.8068 ± 0.00014.

In the case of AUAUCU, the “normalized RNA/DNA level with ligand (log10)” value (hypoxanthine [1]) is reported as 1.89 ± 0.026 and the “normalized RNA/DNA level without ligand (log10)” value (hypoxanthine [2]) is reported as 1.844 ± 0.016.

With AUAUCA the “normalized RNA/DNA level with ligand (log10)” value (hypoxanthine [1]) was 1.936 ± 0.0032 and the “normalized RNA/DNA level without ligand (log10)” value (hypoxanthine [2]) was 1.81 ± 0.021.

With AUAUCC the “normalized RNA/DNA level with ligand (log10)” value (hypoxanthine [1]) was 1.938 ± 0.015 and the “normalized RNA/DNA level without ligand (log10)” value (hypoxanthine [2]) was 1.876 ± 0.018.

With CUAUGC the “normalized RNA/DNA level with ligand (log10)” value (hypoxanthine [1]) was 1.99 ± 0.044 and the “normalized RNA/DNA level without ligand (log10)” value (hypoxanthine [2]) was 1.88 ± 0.076.

With CUAUGA the “normalized RNA/DNA level with ligand (log10)” value (hypoxanthine [1]) was 1.95 ± 0.036 and the “normalized RNA/DNA level without ligand (log10)” value (hypoxanthine [2]) was 1.85 ± 0.042.

With CUAUGU the “normalized RNA/DNA level with ligand (log10)” value (hypoxanthine [1]) was 1.952 ± 0.0085 and the “normalized RNA/DNA level without ligand (log10)” value (hypoxanthine [2]) was 1.88 ± 0.019.

With UUACCA the “normalized RNA/DNA level with ligand (log10)” value (hypoxanthine [1]) was 1.95 ± 0.038 and the “normalized RNA/DNA level without ligand (log10)” value (hypoxanthine [2]) was 1.871 ± 0.008.

In the case of UUACCU, the “normalized RNA/DNA level with ligand (log10)” value (hypoxanthine [1]) is reported as 1.99 ± 0.053 and the “normalized RNA/DNA level without ligand (log10)” value (hypoxanthine [2]) is reported as 1.88 ± 0.029.

UUACCC was tested, and the “normalized RNA/DNA level with ligand (log10)” value (hypoxanthine [1]) was 1.973 ± 0.0071 and the “normalized RNA/DNA level without ligand (log10)” value (hypoxanthine [2]) was 1.93 ± 0.064.

GUACGA was tested, and the “normalized RNA/DNA level with ligand (log10)” value (hypoxanthine [1]) was 1.91 ± 0.04 and the “normalized RNA/DNA level without ligand (log10)” value (hypoxanthine [2]) was 1.686 ± 0.0047.

With GUACGC the “normalized RNA/DNA level with ligand (log10)” value (hypoxanthine [1]) was 1.95 ± 0.033 and the “normalized RNA/DNA level without ligand (log10)” value (hypoxanthine [2]) was 1.84 ± 0.062.

UUAUAA was tested, and the “normalized RNA/DNA level with ligand (log10)” value (hypoxanthine [1]) was 1.92 ± 0.0059 and the “normalized RNA/DNA level without ligand (log10)” value (hypoxanthine [2]) was 1.76 ± 0.041.

In the case of UUAUAU, the “normalized RNA/DNA level with ligand (log10)” value (hypoxanthine [1]) is reported as 1.93 ± 0.027 and the “normalized RNA/DNA level without ligand (log10)” value (hypoxanthine [2]) is reported as 1.85 ± 0.019.

For UUAUAG, the “normalized RNA/DNA level with ligand (log10)” value (hypoxanthine [1]) was 1.89 ± 0.019 and the “normalized RNA/DNA level without ligand (log10)” value (hypoxanthine [2]) was 1.67 ± 0.04.

With AUACCA the “normalized RNA/DNA level with ligand (log10)” value (hypoxanthine [1]) was 1.91 ± 0.02 and the “normalized RNA/DNA level without ligand (log10)” value (hypoxanthine [2]) was 1.88 ± 0.031.

With AUACCU the “normalized RNA/DNA level with ligand (log10)” value (hypoxanthine [1]) was 1.985 ± 0.013 and the “normalized RNA/DNA level without ligand (log10)” value (hypoxanthine [2]) was 1.9 ± 0.039.

In the case of CUCCCU, the “normalized RNA/DNA level with ligand (log10)” value (hypoxanthine [1]) is reported as 1.94 ± 0.039 and the “normalized RNA/DNA level without ligand (log10)” value (hypoxanthine [2]) is reported as 1.97 ± 0.043.

CUCCCA was tested, and the “normalized RNA/DNA level with ligand (log10)” value (hypoxanthine [1]) was 1.991 ± 0.0032 and the “normalized RNA/DNA level without ligand (log10)” value (hypoxanthine [2]) was 1.87 ± 0.046.

In the case of AUCAGC, the “normalized RNA/DNA level with ligand (log10)” value (hypoxanthine [1]) is reported as 1.94 ± 0.024 and the “normalized RNA/DNA level without ligand (log10)” value (hypoxanthine [2]) is reported as 1.95 ± 0.047.

For UUAACU, the “normalized RNA/DNA level with ligand (log10)” value (hypoxanthine [1]) was 1.932 ± 0.017 and the “normalized RNA/DNA level without ligand (log10)” value (hypoxanthine [2]) was 1.841 ± 0.012.

UUAACC was tested, and the “normalized RNA/DNA level with ligand (log10)” value (hypoxanthine [1]) was 1.941 ± 0.0056 and the “normalized RNA/DNA level without ligand (log10)” value (hypoxanthine [2]) was 1.921 ± 0.0067.

For UUAACA, the “normalized RNA/DNA level with ligand (log10)” value (hypoxanthine [1]) was 1.93 ± 0.059 and the “normalized RNA/DNA level without ligand (log10)” value (hypoxanthine [2]) was 1.9 ± 0.0046.

For AUAGUC, the “normalized RNA/DNA level with ligand (log10)” value (hypoxanthine [1]) was 1.931 ± 0.016 and the “normalized RNA/DNA level without ligand (log10)” value (hypoxanthine [2]) was 1.923 ± 0.019.

With AUAGUU the “normalized RNA/DNA level with ligand (log10)” value (hypoxanthine [1]) was 1.9009 ± 0.0014 and the “normalized RNA/DNA level without ligand (log10)” value (hypoxanthine [2]) was 1.84 ± 0.055.

For AUACAU, the “normalized RNA/DNA level with ligand (log10)” value (hypoxanthine [1]) was 1.91 ± 0.03 and the “normalized RNA/DNA level without ligand (log10)” value (hypoxanthine [2]) was 1.794 ± 0.017.

In the case of AUCACU, the “normalized RNA/DNA level with ligand (log10)” value (hypoxanthine [1]) is reported as 1.98 ± 0.024 and the “normalized RNA/DNA level without ligand (log10)” value (hypoxanthine [2]) is reported as 1.884 ± 0.0058.

In the case of AUCACG, the “normalized RNA/DNA level with ligand (log10)” value (hypoxanthine [1]) is reported as 1.933 ± 0.0027 and the “normalized RNA/DNA level without ligand (log10)” value (hypoxanthine [2]) is reported as 1.554 ± 0.015.

With AUCACA the “normalized RNA/DNA level with ligand (log10)” value (hypoxanthine [1]) was 1.908 ± 0.0044 and the “normalized RNA/DNA level without ligand (log10)” value (hypoxanthine [2]) was 1.84 ± 0.023.

For AUCACC, the “normalized RNA/DNA level with ligand (log10)” value (hypoxanthine [1]) was 1.98 ± 0.029 and the “normalized RNA/DNA level without ligand (log10)” value (hypoxanthine [2]) was 1.953 ± 0.011.

With AUAUAU the “normalized RNA/DNA level with ligand (log10)” value (hypoxanthine [1]) was 1.9 ± 0.028 and the “normalized RNA/DNA level without ligand (log10)” value (hypoxanthine [2]) was 1.79 ± 0.045.

UUAGUC was tested, and the “normalized RNA/DNA level with ligand (log10)” value (hypoxanthine [1]) was 1.98 ± 0.0064 and the “normalized RNA/DNA level without ligand (log10)” value (hypoxanthine [2]) was 1.976 ± 0.015.

UUAGUA was tested, and the “normalized RNA/DNA level with ligand (log10)” value (hypoxanthine [1]) was 1.939 ± 0.017 and the “normalized RNA/DNA level without ligand (log10)” value (hypoxanthine [2]) was 1.81 ± 0.039.

For UUAGUU, the “normalized RNA/DNA level with ligand (log10)” value (hypoxanthine [1]) was 1.952 ± 0.0013 and the “normalized RNA/DNA level without ligand (log10)” value (hypoxanthine [2]) was 1.85 ± 0.038.

With UUAGUG the “normalized RNA/DNA level with ligand (log10)” value (hypoxanthine [1]) was 1.89 ± 0.048 and the “normalized RNA/DNA level without ligand (log10)” value (hypoxanthine [2]) was 1.67 ± 0.043.

With UUCCCU the “normalized RNA/DNA level with ligand (log10)” value (hypoxanthine [1]) was 2 ± 0.052 and the “normalized RNA/DNA level without ligand (log10)” value (hypoxanthine [2]) was 1.935 ± 0.0058.

UUCCCC was tested, and the “normalized RNA/DNA level with ligand (log10)” value (hypoxanthine [1]) was 1.93 ± 0.043 and the “normalized RNA/DNA level without ligand (log10)” value (hypoxanthine [2]) was 1.8846 ± 0.0013.

For UUCCCA, the “normalized RNA/DNA level with ligand (log10)” value (hypoxanthine [1]) was 1.92 ± 0.032 and the “normalized RNA/DNA level without ligand (log10)” value (hypoxanthine [2]) was 1.91 ± 0.037.

AUCCCC was tested, and the “normalized RNA/DNA level with ligand (log10)” value (hypoxanthine [1]) was 1.93 ± 0.025 and the “normalized RNA/DNA level without ligand (log10)” value (hypoxanthine [2]) was 1.87 ± 0.036.

With AUCCCA the “normalized RNA/DNA level with ligand (log10)” value (hypoxanthine [1]) was 1.92 ± 0.03 and the “normalized RNA/DNA level without ligand (log10)” value (hypoxanthine [2]) was 1.88 ± 0.02.

AUCCCU was tested, and the “normalized RNA/DNA level with ligand (log10)” value (hypoxanthine [1]) was 1.97 ± 0.042 and the “normalized RNA/DNA level without ligand (log10)” value (hypoxanthine [2]) was 1.9 ± 0.022.

UUCCAG was tested, and the “normalized RNA/DNA level with ligand (log10)” value (hypoxanthine [1]) was 1.9 ± 0.051 and the “normalized RNA/DNA level without ligand (log10)” value (hypoxanthine [2]) was 1.68 ± 0.064.

In the case of UUCCAU, the “normalized RNA/DNA level with ligand (log10)” value (hypoxanthine [1]) is reported as 1.97 ± 0.074 and the “normalized RNA/DNA level without ligand (log10)” value (hypoxanthine [2]) is reported as 1.882 ± 0.0027.

For UUCCAA, the “normalized RNA/DNA level with ligand (log10)” value (hypoxanthine [1]) was 1.92 ± 0.097 and the “normalized RNA/DNA level without ligand (log10)” value (hypoxanthine [2]) was 1.8417 ± 0.0007.

With CUAAAG the “normalized RNA/DNA level with ligand (log10)” value (hypoxanthine [1]) was 1.92 ± 0.051 and the “normalized RNA/DNA level without ligand (log10)” value (hypoxanthine [2]) was 1.67 ± 0.013.

With CUAAAU the “normalized RNA/DNA level with ligand (log10)” value (hypoxanthine [1]) was 1.883 ± 0.01 and the “normalized RNA/DNA level without ligand (log10)” value (hypoxanthine [2]) was 1.82 ± 0.03.

In the case of CUAAAA, the “normalized RNA/DNA level with ligand (log10)” value (hypoxanthine [1]) is reported as 1.88 ± 0.032 and the “normalized RNA/DNA level without ligand (log10)” value (hypoxanthine [2]) is reported as 1.813 ± 0.0042.

In the case of UUAAAC, the “normalized RNA/DNA level with ligand (log10)” value (hypoxanthine [1]) is reported as 1.915 ± 0.008 and the “normalized RNA/DNA level without ligand (log10)” value (hypoxanthine [2]) is reported as 1.791 ± 0.01.
